B1: Hairpin Ribozyme (parent)
chain: GUCCUCUUUCACGUGCGCGUGAAAGAGAGAAGUGAACCAGAGAAACACACGUUGUGGUAUAUUACCUGGUA

The data set covers variants of B1. The data set is described as follows: self-cleavage, relative activity (ratio to wild type); higher = more cleavage; co-transcriptional.
Consider GUCCUAUUUCACGUGCGCCUGAAAGAGAGAAGUGAACCAGAGAAACACACGUUGUGGUAUAUUACCUGGUA [C6A G19C], for which the self-cleavage was 0.55.
Under GUCCUCUUUCACGUGCGCGUGAAAGAGAGAAGUGAACCAGAGUAACACACGUUGUGGUUUAUUACCUGGUA [A43U A59U] stands 0.204.
As for GUCCUCUUUCACGUGCGCGUGUAAGAGAGAAGUGAACCAGAGAAUCACACGUUGUGGUAUAUUACCUGGUA [A22U A45U], the self-cleavage was determined as 0.143.
For GUCCUCUUUCACGUGCGCGUGAAAGAGAGAAGUGCACCAGAGAAACACACGUUCUGGUAUAUUACCUGGUA [A35C G54C] the value was 0.513; for GUCCUCUUUCACGUGCGCGUGAAAGAGAGAAGUGAACCAGAGAAACACACGUUGUGGUAUAUUACCGCGUA [U67G G68C], 0.177.
For GUCCUCUUUCACGUGCGCGUGAAAGAGAGAAGUGAACCAGAGAACCACACGUUGCGGUAUAUUACCUGGUA [A45C U55C] the value was 0.244; for GUCAUCUUUCACGUGCGCGUGAAAGAGAGAAGUGAACCAGAGAAACACACGUUGUGGUAUAGUACCUGGUA [C4A U62G], 0.1; for CUCCUCUUUCAAGUGCGCGUGAAAGAGAGAAGUGAACCAGAGAAACACACGUUGUGGUAUAUUACCUGGUA [G1C C12A], 0.215.
For the variant GUCCUCUUUCACGUUCGCGUGAAAGAGAGAAGUGAACCAGAGAAACACGCGUUGUGGUAUAUUACCUGGUA [G15U A49G], the self-cleavage came to 0.539.
For GUCCUCUUUCACGUGCGCCUGAAAGGGAGAAGUGAACCAGAGAAACACACGUUGUGGUAUAUUACCUGGUA [G19C A26G] the value was 0.692; for GUCCUCUGUCACGUGCGCGUGAAAGCGAGAAGUGAACCAGAGAAACACACGUUGUGGUAUAUUACCUGGUA [U8G A26C], 0.25; for GUCCUCUUUCACGUGCGCGUGAAAGAGAGAAGUGAACCAGAGAAACACACGUUGUGGUGUAUUACCUGGGA [A59G U70G], 0.161.
Under GUCCUCUUUCACGUGCGCGUGAAAGAGAGAAGUGAAUCAGAGAAACACACGUUGUGAUAUAUUACCUGGUA [C37U G57A] stands 0.169.
For GUCCUCUUUCACGUGCGCGUGAAAGAGAUAAGUGAACCAGAGAAACACACGUUGUGGUAUAUUACCCGGUA [G29U U67C] the value was 0.101; for GUCCUCUUUCACGUGCGCGUGAAAGAGAGAAGUGAACCAGAGAAACACACGUUGUGGUAUAUUCCCUGCUA [A64C G69C], 0.129; for GUCCUCUUACACGUGCGCGUGAAAGAGAGAAGUGAACCAGAGAAACACACGUUGCGGUAUAUUACCUGGUA [U9A U55C], 0.179.
Take GUCCUCUUUCACGUGCGCGUGAUUGAGAGAAGUGAACCAGAGAAACACACGUUGUGGUAUAUUACCUGGUA [A23U A24U]: the self-cleavage is 0.737.
Under GUCCUCCUUCACGUGCGCGUGAAAGAGAGAAGUGAACCAGAGAAACACACGUUGUGGUAUAUUACCUGGGA [U7C U70G] stands 0.877; under GUCCUCUUUCACGCGCGCGUGAAAGAGAGAAGGGAACCAGAGAAACACACGUUGUGGUAUAUUACCUGGUA [U14C U33G], 0.191.
Under GUCCUCUUUCACGUGUGCGUGAAAGAGAGAAGUGAACCAGAGAAACACACGUUGCGGUAUAUUACCUGGUA [C16U U55C] stands 0.251; under GUCCUCUUUCACGUGCGCGUGAAAGAGAGCAGUGAACAAGAGAAACACACGUUGUGGUAUAUUACCUGGUA [A30C C38A], 0.183; under GUCCUCUUUCACGUGCGCGUGAUAGAGAGAAGUGAACCAGAGAAACACACGUUGUGGUAGAUUACCUGGUA [A23U U60G], 0.569.
For GUCCUCUUUCACGUGCGCGUGAAAGAGAGAAGUGAACAAGAGAAACACACGUUGUGGCAUAUUACCUGGUA [C38A U58C] the value was 0.181.
Take GUCCUCUUUCACGUGCGCGUGAAAUAGAGAAGUGAACCAGAGAAACACACGUUUUGGUAUAUUACCUGGUA [G25U G54U]: the self-cleavage turned out to be 0.399.
Under GUCCUCUUUCACGUGCGUGUGAAAGAGAGAAGUGAACCAGAGAAACACACGUUGUGGUAUAUUAACUGGUA [C18U C65A] stands 0.88.
As for CUCCUCUUUCACGUGCGCGUGAAAGAGAGAAGUGAACCAGAGAAACACACGUUGUGGUAUAUUACCUGGGA [G1C U70G], the self-cleavage was 0.166.
With GUCCUCUUUCACGUGCGCGUGAAAGAGAGAAGUGCAACAGAGAAACACACGUUGUGGUAUAUUACCUGGUA [A35C C37A], the self-cleavage was found to be 0.269.
Under GUCCUCUUUCACGUGCGAGUGAAAGAGAGAAGUGAACCAGGGAAACACACGUUGUGGUAUAUUACCUGGUA [C18A A41G] stands 0.76.
For AUCCUCUUUCACGUGCGCGUGAAAGAGAGAAGUGAACCAGAGAAAAACACGUUGUGGUAUAUUACCUGGUA [G1A C46A] the value was 0.134; for GUCCUCUUUCACGUGCGCGUGAAAGAGAGAAAUGAACCAGAGAAACACACGUUGUGGUAUAUUGCCUGGUA [G32A A64G], 0.142.
Turning to GUUCUCUUUCACGUGCGCGUGAAAGAGAGAAGUGAACCAGAGAAACACACGUUGUGGUAUAUUACCUGCUA [C3U G69C], the self-cleavage amounted to 0.185.
GUCCUCUUUCACGUGCGCGUGAAAGAGAGAAAUGAACCAGAGAAACACACGUUGUGGAAUAUUACCUGGUA [G32A U58A]: the self-cleavage was 0.0567.
Under GUCCUCUUUCACGUGCGCGUGAAAGGGAGAAGUGAACCAGAGAAACACACGUUGUGGUAUAUUACUUGGUA [A26G C66U] stands 0.429; under GUCCUCUUUCACGUGCGCGUGAAAGAGAGAAGUGAACUAGAGAAACACACGUUGUGGUAUAUUACAUGGUA [C38U C66A], 0.167.
For GUCCUCUUUCACGUGCGCGUGAAAGAGAGAAGUGAACCAGAGAAACACACGAUGUGGUAUAUUACCUGGGA [U52A U70G] the value was 0.86; for GUCCUCUUUCACGUGCGCGUGAAAGAGAGAAGUGAACCAGAGAAACACCCGUUGUGGUAUAUUCCCUGGUA [A49C A64C], 0.168; for AUCCUCUUUCACCUGCGCGUGAAAGAGAGAAGUGAACCAGAGAAACACACGUUGUGGUAUAUUACCUGGUA [G1A G13C], 0.119.
For GUCCUCUUUCACGUGCGCGUGAAAGAGAGAACUGAACCAGAGCAACACACGUUGUGGUAUAUUACCUGGUA [G32C A43C] the value was 0.23.

Source of the values: the RNAGym collection of RNA variant scans (doi:10.7554/elife.80360).
